Assay results taken from paper PMC9218434.

Biological target: nucleosome core particle (NCP) of human histones H2A, H2B, H3.1 and H4 with the 145 base-pair Widom 601 DNA, P04908;P06899;P68431;P62805
Experiment: electrophoretic mobility shift assay
Details: non-denaturing 4% polyacrylamide gel, SYBR Gold staining, n = 3, read off a plot

response (0.4 µM p300(BRPHΔAILZ), parent: est. 48) | response (0.8 µM p300(BRPHΔAILZ), parent: est. 71) | response (1.2 µM p300(BRPHΔAILZ), parent: est. 82) | response (0.4 µM p300(BRPHΔAILZ), parent: est. 41) | response (0.8 µM p300(BRPHΔAILZ), parent: est. 62) | response (1.2 µM p300(BRPHΔAILZ), parent: est. 75) | Substance
2.5% | 6% | 8.5% |  |  |  | p300(BRPH_(ΔAIL)Z), catalytic core of human p300 (aa 1035-1720, Y1467F, autoinhibition loop replaced by a linker) (from UniProt Q09472) K1456A; K1459A; K1461A; R1462A
 |  |  | 3.3% | 8% | 13% | p300(BRPH_(ΔAIL)Z), catalytic core of human p300 (aa 1035-1720, Y1467F, autoinhibition loop replaced by a linker) (from UniProt Q09472) R1137A
